According to US20130064881A1 (GRADALIS, published 2013):

T1: full length androgen receptor (human, UniProt P10275 1-920)
T1 construct: Full length AR expressed inside transfected cells (intracellular, not on the surface); also called AR; full length AR
T1 sequence: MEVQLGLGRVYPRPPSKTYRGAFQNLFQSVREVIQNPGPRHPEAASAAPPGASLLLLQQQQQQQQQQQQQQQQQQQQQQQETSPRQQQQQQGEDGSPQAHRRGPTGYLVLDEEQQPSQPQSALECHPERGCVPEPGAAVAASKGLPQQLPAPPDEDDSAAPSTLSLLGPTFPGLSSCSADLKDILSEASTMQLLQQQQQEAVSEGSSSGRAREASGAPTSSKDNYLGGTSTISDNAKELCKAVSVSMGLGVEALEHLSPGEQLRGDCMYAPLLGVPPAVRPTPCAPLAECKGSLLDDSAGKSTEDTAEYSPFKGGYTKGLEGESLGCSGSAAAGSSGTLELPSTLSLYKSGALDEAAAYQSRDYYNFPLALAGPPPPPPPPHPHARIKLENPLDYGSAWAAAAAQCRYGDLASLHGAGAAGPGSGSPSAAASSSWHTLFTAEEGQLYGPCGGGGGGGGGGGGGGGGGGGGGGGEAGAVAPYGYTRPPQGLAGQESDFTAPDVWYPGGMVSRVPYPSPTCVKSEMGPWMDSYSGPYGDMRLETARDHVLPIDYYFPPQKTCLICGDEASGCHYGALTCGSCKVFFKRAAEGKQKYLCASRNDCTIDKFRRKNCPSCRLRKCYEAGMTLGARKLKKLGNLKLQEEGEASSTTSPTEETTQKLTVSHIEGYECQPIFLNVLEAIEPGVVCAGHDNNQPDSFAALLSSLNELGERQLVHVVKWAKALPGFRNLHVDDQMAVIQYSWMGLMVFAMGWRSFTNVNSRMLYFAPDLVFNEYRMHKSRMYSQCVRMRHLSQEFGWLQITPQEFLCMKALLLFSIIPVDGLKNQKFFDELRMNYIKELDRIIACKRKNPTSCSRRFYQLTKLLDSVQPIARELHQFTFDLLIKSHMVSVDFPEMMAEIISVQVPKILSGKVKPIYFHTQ

T2: progesterone receptor (UniProt P06401 1-933, limits assumed)
T2 construct: The assay and the construct are not described; also called a related receptor, the progesterone receptor
T2 sequence (looked up): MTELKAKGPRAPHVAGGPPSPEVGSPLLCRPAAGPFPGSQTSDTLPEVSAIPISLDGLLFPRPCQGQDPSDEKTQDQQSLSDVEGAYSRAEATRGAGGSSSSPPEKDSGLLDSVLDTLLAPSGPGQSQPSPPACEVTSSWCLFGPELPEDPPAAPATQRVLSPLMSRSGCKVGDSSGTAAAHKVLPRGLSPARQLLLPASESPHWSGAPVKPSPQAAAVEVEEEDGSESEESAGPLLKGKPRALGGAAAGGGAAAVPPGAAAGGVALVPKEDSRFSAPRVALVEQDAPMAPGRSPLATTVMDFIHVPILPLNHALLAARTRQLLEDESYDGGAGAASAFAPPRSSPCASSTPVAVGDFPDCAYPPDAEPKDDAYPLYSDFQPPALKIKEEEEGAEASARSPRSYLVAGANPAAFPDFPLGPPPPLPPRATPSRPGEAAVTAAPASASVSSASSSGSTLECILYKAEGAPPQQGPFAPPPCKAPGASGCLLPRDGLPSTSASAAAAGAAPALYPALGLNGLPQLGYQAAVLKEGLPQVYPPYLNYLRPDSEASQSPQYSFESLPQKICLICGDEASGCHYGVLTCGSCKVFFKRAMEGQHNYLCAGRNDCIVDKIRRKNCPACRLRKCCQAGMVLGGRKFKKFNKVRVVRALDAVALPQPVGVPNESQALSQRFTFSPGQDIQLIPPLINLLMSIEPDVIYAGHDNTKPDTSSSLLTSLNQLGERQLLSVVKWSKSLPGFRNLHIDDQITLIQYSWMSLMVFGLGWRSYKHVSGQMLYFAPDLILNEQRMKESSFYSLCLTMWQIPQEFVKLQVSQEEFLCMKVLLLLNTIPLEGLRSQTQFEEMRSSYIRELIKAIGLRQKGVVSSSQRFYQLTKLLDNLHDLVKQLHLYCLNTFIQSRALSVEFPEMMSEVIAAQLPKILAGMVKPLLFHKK


What was measured:
[1] = molecular target: T1, full length androgen receptor; assay: not described
[2] = molecular target: T2, progesterone receptor; assay: not described

binding result [1] | binding result [2] | Binder
binds | no binding | SRCdp200: Amino acids 1050-1240 of SRC-1 (Expressed in cells from a transfected plasmid; also called SRC derived peptide; 200 amino acid fragment) peptide: MAPNQLRLQLQQRLQGQQQLIHQNRQAILNQFAATAPVGINMRSGMQQQITPQPPLNAQMLAQRQRELYSQQHRQRQLIQQQRAMLMRQQSFGNNLPPSSGLPVQMGNPRLPQGAPQQFPYPPNYGTNPGTPPASTSPFSQLAANPEASLANRNSMVSRGMTGNIGGQFGTGINPQMQQNVFQYPGAGMVPQ
binds | no binding | SRCdp100: Amino acids 1050-1150 of SRC-1 (Expressed in cells from a transfected plasmid; also called SRCdp(P100); SRC derived peptide) peptide: MAPNQLRLQLQQRLQGQQQLIHQNRQAILNQFAATAPVGINMRSGMQQQITPQPPLNAQMLAQRQRELYSQQHRQRQLIQQQRAMLMRQQSFGNNLPPSSGL
